Patent US20260098059A1 (ENDOMET BIOSCIENCES, published 2026)
Several values for one entry are separate records, joined by “and”; a condition that tells them apart may be missing. Equal entries are not always repeated. Where no end group is shown, it is not given here.

T1: β-catenin (UniProt P35222 134-665, limits assumed, biotinylated in the SPR and plate assays)
T1 sequence (looked up): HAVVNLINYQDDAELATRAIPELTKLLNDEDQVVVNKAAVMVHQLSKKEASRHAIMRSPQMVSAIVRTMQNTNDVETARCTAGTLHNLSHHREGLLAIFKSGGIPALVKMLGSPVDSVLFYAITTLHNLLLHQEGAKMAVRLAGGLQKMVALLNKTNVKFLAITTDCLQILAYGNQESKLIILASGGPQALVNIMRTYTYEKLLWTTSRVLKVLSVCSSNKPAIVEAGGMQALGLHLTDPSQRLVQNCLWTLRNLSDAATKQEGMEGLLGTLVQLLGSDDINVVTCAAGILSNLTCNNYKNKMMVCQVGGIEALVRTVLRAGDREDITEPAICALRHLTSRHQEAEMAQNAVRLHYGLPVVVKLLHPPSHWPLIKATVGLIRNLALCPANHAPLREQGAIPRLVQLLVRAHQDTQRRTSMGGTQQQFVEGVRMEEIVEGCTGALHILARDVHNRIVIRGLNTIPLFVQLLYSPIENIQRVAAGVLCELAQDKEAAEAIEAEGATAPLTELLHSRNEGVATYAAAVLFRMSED

B1: SEQ ID NO: 106 (peptide)
peptide: MSRMWFLISSW
HELM: PEPTIDE1{M.S.R.M.W.F.L.I.S.[O=C([C@H](COCc1ccccc1)N[*:1])[*:2]].W}$$$$V2.0
SMILES: CC[C@H](C)[C@H](NC(=O)[C@H](CC(C)C)NC(=O)[C@H](Cc1ccccc1)NC(=O)[C@H](Cc1c[nH]c2ccccc12)NC(=O)[C@H](CCSC)NC(=O)[C@H](CCCNC(=N)N)NC(=O)[C@H](CO)NC(=O)[C@@H](N)CCSC)C(=O)N[C@@H](CO)C(=O)N[C@@H](COCc1ccccc1)C(=O)N[C@@H](Cc1c[nH]c2ccccc12)C(=O)O
B2: SEQ ID NO: 32 (peptide)
peptide: KSRMWYLISFW
HELM: PEPTIDE1{K.S.R.M.W.Y.L.I.S.F.W}$PEPTIDE1,PEPTIDE1,1:R3-11:R2$$$V2.0
SMILES: CC[C@H](C)[C@@H]1NC(=O)[C@H](CC(C)C)NC(=O)[C@H](Cc2ccc(O)cc2)NC(=O)[C@H](Cc2c[nH]c3ccccc23)NC(=O)[C@H](CCSC)NC(=O)[C@H](CCCNC(=N)N)NC(=O)[C@H](CO)NC(=O)[C@@H](N)CCCCNC(=O)[C@H](Cc2c[nH]c3ccccc23)NC(=O)[C@H](Cc2ccccc2)NC(=O)[C@H](CO)NC1=O
B3: SEQ ID NO: 105 (peptide)
peptide: MSRMWFLISSW
HELM: PEPTIDE1{M.S.R.M.W.F.L.I.S.[CCOC[C@H](N[*:1])C(=O)[*:2]].W}$$$$V2.0
SMILES: CCOC[C@H](NC(=O)[C@H](CO)NC(=O)[C@@H](NC(=O)[C@H](CC(C)C)NC(=O)[C@H](Cc1ccccc1)NC(=O)[C@H](Cc1c[nH]c2ccccc12)NC(=O)[C@H](CCSC)NC(=O)[C@H](CCCNC(=N)N)NC(=O)[C@H](CO)NC(=O)[C@@H](N)CCSC)[C@@H](C)CC)C(=O)N[C@@H](Cc1c[nH]c2ccccc12)C(=O)O
B4: SEQ ID NO: 170 (peptide)
peptide: KMWFLICFWD
HELM: PEPTIDE1{K.M.W.F.L.I.C.F.W.D}$PEPTIDE1,PEPTIDE1,1:R3-10:R3$$$V2.0
SMILES: CC[C@H](C)[C@@H]1NC(=O)[C@H](CC(C)C)NC(=O)[C@H](Cc2ccccc2)NC(=O)[C@H](Cc2c[nH]c3ccccc23)NC(=O)[C@H](CCSC)NC(=O)[C@@H](N)CCCCNC(=O)C[C@@H](C(=O)O)NC(=O)[C@H](Cc2c[nH]c3ccccc23)NC(=O)[C@H](Cc2ccccc2)NC(=O)[C@H](CS)NC1=O
B5: SEQ ID NO: 167 (peptide)
peptide: KMWFLICAWD
HELM: PEPTIDE1{K.M.W.F.L.I.C.A.W.D}$PEPTIDE1,PEPTIDE1,1:R3-10:R3$$$V2.0
SMILES: CC[C@H](C)[C@@H]1NC(=O)[C@H](CC(C)C)NC(=O)[C@H](Cc2ccccc2)NC(=O)[C@H](Cc2c[nH]c3ccccc23)NC(=O)[C@H](CCSC)NC(=O)[C@@H](N)CCCCNC(=O)C[C@@H](C(=O)O)NC(=O)[C@H](Cc2c[nH]c3ccccc23)NC(=O)[C@H](C)NC(=O)[C@H](CS)NC1=O
B6: SEQ ID NO: 101 (peptide)
peptide: WFLISSW
HELM: PEPTIDE1{W.F.L.I.S.[O=C([C@H](COCc1ccccc1)N[*:1])[*:2]].W}$$$$V2.0
SMILES: CC[C@H](C)[C@H](NC(=O)[C@H](CC(C)C)NC(=O)[C@H](Cc1ccccc1)NC(=O)[C@@H](N)Cc1c[nH]c2ccccc12)C(=O)N[C@@H](CO)C(=O)N[C@@H](COCc1ccccc1)C(=O)N[C@@H](Cc1c[nH]c2ccccc12)C(=O)O
B7: SEQ ID NO: 104 (peptide)
peptide: WFLISSW
HELM: PEPTIDE1{W.F.L.I.S.[CCOC[C@H](N[*:1])C(=O)[*:2]].W}$$$$V2.0
SMILES: CCOC[C@H](NC(=O)[C@H](CO)NC(=O)[C@@H](NC(=O)[C@H](CC(C)C)NC(=O)[C@H](Cc1ccccc1)NC(=O)[C@@H](N)Cc1c[nH]c2ccccc12)[C@@H](C)CC)C(=O)N[C@@H](Cc1c[nH]c2ccccc12)C(=O)O

Target: T1, β-catenin
Test: cell-based or functional assay

Wnt Reporter EC50 | Binder
> 30 µM | MSRMWFLISFW-NH2 [SEQ ID NO: 72]
> 30 µM | MTRMWFLISFW-NH2 [SEQ ID NO: 73]
> 30 µM | MSRRWFLISFW-NH2 [SEQ ID NO: 75]
> 30 µM | MSRHWFLISFW-NH2 [SEQ ID NO: 88]
> 30 µM | RSRMWFLISFW-NH2 [SEQ ID NO: 84]
> 30 µM | KSRKWFLISFW-NH2 [SEQ ID NO: 93]
> 30 µM | MSRWWFLISFW-NH2 [SEQ ID NO: 78]
> 30 µM | KSRHWFLISFW-NH2 [SEQ ID NO: 94]
> 30 µM | MSRTWFLISFW-NH2 [SEQ ID NO: 76]
> 30 µM | DSRMWFLISFW-NH2 [SEQ ID NO: 85]
> 30 µM | KSRMWFLISFW-NH2 [SEQ ID NO: 83]
> 15 µM and ≤ 22.5 µM | B1
> 30 µM | WSRHWFLISFW-NH2 [SEQ ID NO: 91]
> 30 µM | YSRMWFLISFW-NH2 [SEQ ID NO: 82]
> 30 µM | B2
> 7.5 µM and ≤ 15 µM | B3
> 30 µM | ESRMWFLISFW-NH2 [SEQ ID NO: 86]
> 30 µM | MSRMWWLISFW-NH2 [SEQ ID NO: 80]
> 22.5 µM and ≤ 30 µM | H-MSRMWFLISSW-OH [SEQ ID NO: 99]
> 30 µM | MQRMWFLISFW-NH2 [SEQ ID NO: 74]
> 30 µM | KSRWWFLISFW-NH2 [SEQ ID NO: 95]
> 30 µM | WSRMWFLISFW-NH2 [SEQ ID NO: 79]

Wnt Reporter EC50 | Binder
> 30 µM | MSRKWFLISFW-NH2 [SEQ ID NO: 87]
> 30 µM | MSRFWFLISFW-NH2 [SEQ ID NO: 77]
> 30 µM | WSRKWFLISFW-NH2 [SEQ ID NO: 90]
> 30 µM | FSRMWFLISFW-NH2 [SEQ ID NO: 81]
> 15 µM and ≤ 22.5 µM | WSRWWFLISFW-NH2 [SEQ ID NO: 92]
> 30 µM | HSRMWFLISFW-NH2 [SEQ ID NO: 89]
> 30 µM | H-KMWILICFWG-OH [SEQ ID NO: 113]
> 15 µM and ≤ 22.5 µM | B4
> 15 µM and ≤ 22.5 µM | H-RMWILICFWG-OH [SEQ ID NO: 115]
≤ 7.5 µM | H-HMWILICFWG-OH [SEQ ID NO: 114]
> 7.5 µM and ≤ 15 µM | H-RMWILISFWG-OH [SEQ ID NO: 124]
> 7.5 µM and ≤ 15 µM | B5
> 7.5 µM and ≤ 15 µM | H-WFLISFW-OH [SEQ ID NO: 110]
> 30 µM | WFLISFW-NH2 [SEQ ID NO: 98]
> 7.5 µM and ≤ 15 µM | B6
> 7.5 µM and ≤ 15 µM | H-WFLITTW-OH [SEQ ID NO: 100]
> 7.5 µM and ≤ 15 µM | B7
> 7.5 µM and ≤ 15 µM | H-WFLISYW-OH [SEQ ID NO: 109]
> 22.5 µM and ≤ 30 µM | H-WFLISSW-OH [SEQ ID NO: 97]
> 15 µM and ≤ 22.5 µM | H-WFLISTW-OH [SEQ ID NO: 103]
> 7.5 µM and ≤ 15 µM | MWFLISFW-NH2 [SEQ ID NO: 107]
